Laboratory results from patent US12018066.
Read-outs that look alike come from different tables or passages of the source.

Columns and labels:
[1] = target: SARS-CoV-2 spike protein receptor binding domain (RBD2) (SARS-CoV-2) (UniProt P0DTC2); assay: SPR sandwich binning, ligand E01
[2] = target: SARS-CoV-2 spike protein receptor binding domain (RBD2) (SARS-CoV-2) (UniProt P0DTC2); assay: SPR sandwich binning, ligand H05
[3] = target: SARS-CoV-2 spike protein receptor binding domain (RBD2) (SARS-CoV-2) (UniProt P0DTC2); assay: SPR sandwich binning, ligand S01
[4] = target: SARS-CoV-2 spike protein receptor binding domain (RBD2) (SARS-CoV-2) (UniProt P0DTC2); assay: SPR sandwich binning, ligand H01
[5] = target: SARS-CoV-2 spike protein receptor binding domain (RBD2) (SARS-CoV-2) (UniProt P0DTC2); assay: SPR sandwich binning, ligand B04
[6] = target: SARS-CoV-2 spike protein receptor binding domain (RBD2) (SARS-CoV-2) (UniProt P0DTC2)
[7] = target: SARS-CoV-2 spike protein receptor binding domain (RBD2) (SARS-CoV-2) (UniProt P0DTC2); assay: SPR, immobilized antibody, RBD injected, 1:1 fit
[8] = target: SARS-CoV-2 spike protein receptor binding domain (RBD2) (SARS-CoV-2) (UniProt P0DTC2); assay: SPR sandwich binning, ligand G07
[9] = target: SARS-CoV-2 spike protein receptor binding domain (RBD2) (SARS-CoV-2) (UniProt P0DTC2); assay: SPR sandwich binning, ligand CR3022
[10] = target: SARS-CoV-2 spike protein receptor binding domain (RBD2) (SARS-CoV-2) (UniProt P0DTC2); assay: SPR sandwich binning, ligand Anti-His
[11] = target: SARS-CoV-2 spike protein receptor binding domain (RBD2) (SARS-CoV-2) (UniProt P0DTC2); assay: SPR sandwich binning, ligand F07; light (intermediate) cell
[12] = target: SARS-CoV-2 spike protein receptor binding domain (RBD2) (SARS-CoV-2) (UniProt P0DTC2); assay: SPR sandwich binning, ligand E08

## CR3022 (commercial anti-RBD2 antibody, reference IgG)
[1]
  normalized analyte binding to RBD2 held by the immobilized ligand: 1.63
[2]
  normalized analyte binding to RBD2 held by the immobilized ligand: -0.14
[3]
  normalized analyte binding to RBD2 held by the immobilized ligand: 1.83
[4]
  normalized analyte binding to RBD2 held by the immobilized ligand: -0.01
[5]
  normalized analyte binding to RBD2 held by the immobilized ligand: 1.64
[6]
  Kd: 0.114 µM
[7]
  Kd: 0.11 µM
[8]
  normalized analyte binding to RBD2 held by the immobilized ligand: 1.35
[9]
  normalized analyte binding to RBD2 held by the immobilized ligand: -0.14
[10]
  normalized analyte binding to RBD2 held by the immobilized ligand: 1.45
[11]
  normalized analyte binding to RBD2 held by the immobilized ligand: 0.23
[12]
  normalized analyte binding to RBD2 held by the immobilized ligand: -0.1
